According to patent publication US20160355583A1 (Novartis, published 2016):
Where two headings read alike, the source gives them in different places.

T1: human BMP7 (human, UniProt P18075 293-431)
T1 construct: Bought recombinant protein; also called huBMP7; rhBMP7 (R&D Cat#354-BP-010)
T1 sequence (looked up): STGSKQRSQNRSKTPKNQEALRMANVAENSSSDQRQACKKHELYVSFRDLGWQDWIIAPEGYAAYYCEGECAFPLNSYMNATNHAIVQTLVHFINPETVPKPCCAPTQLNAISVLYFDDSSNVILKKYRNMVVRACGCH

T2: human BMP10 (Bone Morphogenetic Protein 10 Preproprotein [Homo sapiens], NP_055297) (human, UniProt O95393 317-424)
T2 construct: Bought recombinant protein; also called huBMP10; rhBMP10 (R&D Cat#2926-BP-025)
T2 sequence: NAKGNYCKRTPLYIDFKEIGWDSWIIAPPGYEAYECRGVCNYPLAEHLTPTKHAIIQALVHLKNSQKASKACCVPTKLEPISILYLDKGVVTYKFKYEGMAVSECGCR

T3: human BMP9 (BMP9/Growth Differentiation Factor 2 [Homo sapiens], NP_057288) (human, UniProt Q9UK05 320-429, limits assumed)
T3 sequence: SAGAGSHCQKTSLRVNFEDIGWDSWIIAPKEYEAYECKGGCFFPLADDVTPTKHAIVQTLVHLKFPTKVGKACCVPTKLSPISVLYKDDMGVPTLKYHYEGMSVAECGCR

T4: rat BMP9 (rat, UniProt M0RB87 320-430, The mature growth factor is a disulfide-linked homodimer. One copy of the polypeptide is given.)
T4 construct: also called rat BMP9 (R&D Systems 5566-BP); rat BMP9 condition medium
T4 sequence: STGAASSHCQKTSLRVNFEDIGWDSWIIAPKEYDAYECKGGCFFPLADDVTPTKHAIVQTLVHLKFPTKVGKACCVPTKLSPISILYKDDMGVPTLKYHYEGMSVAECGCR

T5: mouse BMP9 (mouse, UniProt Q9WV56 319-428, limits assumed)
T5 construct: also called murine BMP9; mouse BMP9 (iPROT101715)
T5 sequence (looked up): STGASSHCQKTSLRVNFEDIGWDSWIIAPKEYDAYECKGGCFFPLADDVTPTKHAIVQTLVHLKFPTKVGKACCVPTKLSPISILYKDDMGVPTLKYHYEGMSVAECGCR

T6: cyno BMP9 (cyno, UniProt G7PEU8 320-429)
T6 sequence: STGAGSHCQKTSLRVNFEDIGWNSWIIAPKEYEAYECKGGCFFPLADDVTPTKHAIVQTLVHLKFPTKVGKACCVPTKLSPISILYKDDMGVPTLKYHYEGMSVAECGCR


What was measured:
human BMP7 = biological target: T1, human BMP7; assay: table caption: MSD-SET; Example 6 describes Biacore SPR for BMP2, BMP7, BMP10
human BMP2 = biological target: T7, human BMP2 (human, UniProt P12643 283-396); assay: as above
T7 construct: Bought recombinant protein; also called huBMP2; rhBMP2 (R&D Cat#355-BM-010)

[1] = biological target: T2, human BMP10 (Bone Morphogenetic Protein …); assay: Table 5 (caption: MSD-SET; Example 6 describes Biacore SPR on immobilised rhBMP10, Fab 31.25-1000 nM)
[2] = biological target: T3, human BMP9 (BMP9/Growth Differentiation …); assay: cell-based or functional assay
[3] = biological target: T3, human BMP9 (BMP9/Growth Differentiation …); assay: MSD-SET solution equilibrium titration
Experimental: (§1) The amount of free Fab binding sites was determined by transferring the mixtures on antigen-coated plates and a brief incubation. The free Fab was consequently bound to the plate and detected with a detection antibody after a washing step for removing Fab-antigen complexes. The resulting signal was plotted versus the antigen concentration; and the KD was accurately determined by non-linear curve fitting.
(§2) A 22 serial 2ⁿ dilution of the antigens (human BMP9 (GD-43-KS00); cyno BMP9, rat BMP9 (R&D Systems 5566-BP) or mouse BMP9 (iPROT101715)) was prepared in incubation buffer (PBS (Teknova Cat#P0195) containing 0.5% BSA (Sigma Cat#A7906-500G) and 0.02% Tween-20 (VWR Cat#437082Q)). A constant concentration of the Fab was added. A volume of 60 ul of each antigen:Fab mix was distributed in duplicates to a 384-well polypropylene microtiter plate (PP MTP, Greiner Cat#781280). Incubation buffer served as negative control and a sample containing no antigen served as positive control (Bₘₐₓ). The plate was sealed and incubated overnight (O/N) at room temperature (RT).
(§3) A 384-well standard MSD array plate (Meso Scale Discovery Cat#L21XA) was coated with 30 ul/well human BMP9 diluted in PBS as capture agent and incubated O/N at 4° C. After washing for 3 times with 70 ul/well washing buffer (TBS (Teknova Cat#T1680) with 0.05% Tween-20), the plate was blocked with 50 ul/well blocking buffer (PBS with 5% BSA) for 1 hour at RT. After washing, a volume of 30 ul/well of the antigen:Fab mix was transferred from the PP MTP to the coated MSD plate and incubated for 20 min at RT. After an additional wash step, 30 ul of detection antibody (Goat anti-human Fab specific (Jackson Immuno Research Cat#109-005-097) conjugated with MSD SULFO-TAG NHS Ester (Meso Scale Discovery Cat#R91AN-1)) diluted 1:1000 in incubation buffer was added to each well and incubated for 30 min at RT. The MSD plate was washed and 35 ul/well of read buffer (MSD Read Buffer T 4×, Meso Scale Discovery Cat#R92TC-1) was added and then incubated for 5 min at RT. ECL signals were measured with the MSD SECTOR Imager 6000. The data was evaluated with XLfit (IDBS) software following a 1:1 fit model for Fab (according to Piehler et al., 1997).

rat BMP9 = biological target: T4, rat BMP9; assay: MSD-SET solution equilibrium titration
Experimental: as §1, §2, §3

[4] = biological target: T3, human BMP9 (BMP9/Growth Differentiation …); assay: blocking ELISA; competitor Type II BMP receptor (ActRIIB, BMPRII)
Experimental: (§4) Blocking ELISA was used to identify positive clones that can inhibit the interactions between BMP9 and its receptors. Four different recombinant BMP9 receptors can be used: human Alk1-Fc (R&D system, 370-AL-100); human BMPRII-Fc (R&D system, 811-BR-100); human ActRIIA-Fc (R&D system, 340-R2-100); human ActRIIB-Fc (R&D system).
(§5) The blocking activity of antibody sample to specific ligand/receptor combination was measured by ELISA. In brief, 50 ul of receptor at a concentration of 1 ug/ml in coating buffer (PBS) was added into 96 well ELISA plates at 4° C. overnight, followed by washing with PBST one time. ELISA plates were blocked with 200 ul blocking buffer (PBST containing 1% BSA) in each well and then incubated at room temperature (RT) for 1 hour, followed by washing with PBST for 3 times. Diluted antibody sample was mixed with biotinylated human BMP9 (bio-hBMP9 of 1 ug/ml) and incubated at RT for 45 minutes. The mixture of antibody and bio-hBMP9 was added to the plates of 50 ul/well and then incubated at RT for 30 minutes, followed by washing with PBST for 3 times. 50 ul Poly-HRP Streptavidin (Thermofisher, 21140) was added to each well of the plates and incubated at RT for 30 minutes, followed by washing with PBST for 5 times. Finally, 50 ul of TMB reagent (Invitrogen 002023) and 50 ul of 1N HCl (Invitrogen SS01100) were added to each well to stop the reaction. Absorbance of each well was read at 450 nm to get readout OD₄₅₀.

[5] = biological target: T2, human BMP10 (Bone Morphogenetic Protein …); assay: Table 7 (caption: MSD-SET; Example 6 describes Biacore SPR on immobilised rhBMP10, Fab 31.25-1000 nM)
mouse BMP9 = biological target: T5, mouse BMP9; assay: MSD-SET solution equilibrium titration
Experimental: as §1, §2, §3

cyno BMP9 = biological target: T6, cyno BMP9; assay: MSD-SET solution equilibrium titration
Experimental: as §1, §2, §3

[6] = biological target: T3, human BMP9 (BMP9/Growth Differentiation …); assay: cell-based or functional assay; remark: listed apart in the source
[7] = biological target: T3, human BMP9 (BMP9/Growth Differentiation …); assay: blocking ELISA; competitor Type I BMP receptor (AlkI)
Experimental: as §4, §5

T7 sequence (P12643 283-396 limits assumed): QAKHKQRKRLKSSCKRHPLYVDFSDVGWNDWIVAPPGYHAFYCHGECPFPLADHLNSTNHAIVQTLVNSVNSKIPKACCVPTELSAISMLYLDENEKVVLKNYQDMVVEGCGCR

Binder | Kd (human BMP7) [nM] | Kd (human BMP2) [nM] | binding result [1] | RGA IC50 [pM] (HEK293T BRE-Luc reporter gene assay) [2] | Kd [3] [nM] | Kd (rat BMP9) [nM] | IC50 [4] [nM] | binding result [5] | Kd (mouse BMP9) [nM] | Kd (cyno BMP9) [nM] | RGA IC50 [pM] (HEK293T BRE-Luc reporter gene assay) [6] | IC50 [7] [nM]
Antibody BMP9-5: AM1900 (antibody, human IgG1, kappa, V domains shown) VH: QVQLVQSGAEVKKPGASVKVSCKASGYTFTRYWMHWVRQAPGQGLEWMGEINPSQGGTNYNEKFKSRVTMTVDKSISTAYMELSRLRSDDTAVYYCAIGANYGGLVYWGQGTLVTVSS VL: EIVLTQSPATLSLSPGERATLSCRASESLDNYGISFMNWFQQKPGQAPRFLIYAASNQGSGIPARFSGSGSGTDFTLTISSLQPEDTAVYFCQQSKEVPRTFGGGTKVEIKR | 108 | 999 | no binding | 100 | 0.054 | 0.046 | ≤ 1 |  |  |  |  | 
Antibody BMP9-8: MOR023793 (antibody, human IgG1, kappa, V domains shown, Fully human, phage display) VH: QVQLVQSGAEVKKPGASVKVSCKASGYTFTSYYMNWVRQAPGQGLEWMGWINPVQGNTNYAQKFQGRVTMTRDTSISTAYMELSRLRSEDTAVYYCARNYFDVWGQGTLVTVSS VL: DIQMTQSPSSLSASVGDRVTITCRASQTISNFLAWYQQKPGKAPKLLIYAASNLQSGVPSRFSGSGSGTDFTLTISSLQPEDFAVYYCQQLYAESITFGQGTKVEIKR |  |  |  |  | 0.12 |  | ≤ 1 | no binding | 0.44 | 0.24 | 113 | 
Antibody BMP9-9: MOR023796 (antibody, human IgG1, lambda, V domains shown, Fully human, phage display) VH: QVQLVQSGAEVKKPGSSVKVSCKASGGTFSDYAIHWVRQAPGQGLEWMGGIIPFFGTAYYAQKFQGRVTITADESTSTAYMELSSLRSEDTAVYYCARRIVSDSVAVQYRHAFDPWGQGTLVTVSS VL: QSVLTQPPSVSGAPGQRVTISCSGSSSNIGSNYVYWYQQLPGTAPKLLIYGNNNRPSGVPDRFSGSKSGTSASLAITGLQAEDEADYYCNAWDTKAYVWVFGGGTKLTVLG |  |  |  |  | 0.44 |  | ≤ 1 | no binding | 0.42 | 0.13 | 130 | 
Antibody BMP9-2: MOR022962 (antibody, human IgG1, kappa, V domains shown) VH: QVQLLESGGGLVQPGGSLRLSCAASGFTFSSYAMSWVRQAPGKGLEWVSITLGTGHTHYADSVKGRFTISRDNSKNTLYLQMNSLRAEDTAVYYCARGSYIIWSALDYWGQGTLVTVSS VL: DIQMTQSPSSLSASVGDRVTITCRASQDIRSYLNWYQQKPGKAPKLLIYDASNLQSGVPSRFSGSGSGTDFTLTISSLQPEDFATYYCQQSDTSPLTFGQGTKVEIKR |  |  |  |  | 0.012 | 0.006 |  | no binding | 0.005 | 0.018 | 138 | ≤ 1
Antibody BMP9-7: MOR023787 (antibody, human IgG1, lambda, V domains shown, Fully human, phage display) VH: QVQLVESGGGLVKPGGSLRLSCAASGFTFSSAWMSWVRQAPGKGLEWVGHIKSKTYGGTIDYAAPVKGRFTISRDDSKNTLYLQMNSLKTEDTAVYYCARVGGYYGYGYAFAYWGQGTLVTVSS VL: SYELTQPLSVSVALGQTARITCSGDNIGDKYVSWYQQKPGQAPVLVIYDDNKRPSGIPERFSGSNSGNTATLTISRAQAGDEADYYCSSTASKSFNVFGGGTKLTVLG |  |  |  |  | 0.2 |  |  | no binding | 0.74 | 0.35 | 118 | ≤ 1
Antibody BMP9-3: MOR023795 (antibody, human IgG1, lambda, V domains shown, Fully human, phage display) VH: EVQLVQSGAEVKKPGESLKISCKGSGYSFTTYWIGWVRQMPGKGLEWMGIIYPEGSYTTYSPSFQGQVTISADKSISTAYLQWSSLKASDTAMYYCARGKRVDASSFDYWGQGTLVTVSS VL: QSVLTQPPSVSGAPGQRVTISCSGSSSNIGDNYVSWYQQLPGTAPKLLIYRNNKRPSGVPDRFSGSKSGTSASLAITGLQAEDEADYYCSSTDKEHLVFGGGTKLTVLG |  |  |  |  | 0.288 | 0.069 | ≤ 1 | no binding | 0.059 | 0.262 | 167 | 
